# No end group written: not given here. *: point of attachment. BODIPY(FL) = CC1=CC(C)=[N+]2C1=Cc1ccc(CCC(=O)*)n1[B-]2(F)F
# B1: PMI peptide conjugated to the fluorescent dye BODIPY (peptide)
# peptide: {BODIPY(FL)}-GTSFAEYWNLLSP
# Tests used:
# Assay in all cases: flow cytometry on cells
# [1] = molecular target: MDM2-polyArg (construct 2) (UniProt Q00987 17-125)
# [2] = molecular target: autoinhibited-substrate-MDM2-polyArg (construct 1) (UniProt Q00987 25-125)
# [3] = molecular target: construct 1 cleaved at the Ala-Arg site by OmpT-AR1 (MDM2-polyArg part) (UniProt Q00987 25-125)
binder,measurement,setting,value
B1,binding result,[1],binds
same,fold reduction in fluorescence against construct 2,[2],> 10 fold
same,binding result,[3],binds

# Reference: paper PMC3354639 (Chembiochem, 2012)
